In publication PMC11527256, “Linkage-specific ubiquitin binding interfaces modulate the activity of the chlamydial deubiquitinase Cdu1 towards poly-ubiquitin substrates” (PLOS Pathogens, 2024):

Target: T1, ubiquitin propargylamide (UB-PA) (UniProt P0CG48 1-75, C-terminal propargylamide)
T1 construct: also called ubiquitin-propargylamide suicide probe
Assay: NMR chemical shift perturbation of the covalent adduct against the apo protein
Conditions: both partners purified

B1: Cdu1(130-401), wildtype (enzyme)
chain: PVKTQEDLLPLVPEQVFVEMYEDMARRQTIEALVPAWDSDIIFKCLCYFHTLYPGLIPLETFPPATIFNFKQKIISILEDKKAVLRGEPIKGPLPICCSKENYRRHLQRTTLLPVFMWYHPTPKTLSDTMQTMKQLAIKGSVGASHWLLVIVDIQARRLVYFDSLYNYVMPPENMKKELQSFAQQLDQVYPAYDSKKFSVKIAAKEVIQRGSGSSCGAWCCQFLHWYLKDPLTDALNDLPVDSVERHENLASFVQACEAAVQDLPELSWPEA
notes: source: E. coli Rosetta 2(DE3), purified (Ni-NTA, 3C cleavage, SEC); not shown: 6xHis, N-terminal, cleaved
Does B1 bind?
Result: binds
